According to the nanobody polyreactivity screen of Harvey et al. (2022):

Assay: yeast display, Sf9 membrane polyspecificity reagent, FACS + sequencing; frameworks hold sequencing errors
Method in brief: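 Nanobodies from a synthetic yeast display library (Saccharomyces cerevisiae BJ5465), induced 36–48 hours with galactose, were stained 1 hour at 4 °C with 10% biotinylated, detergent-solubilized Sf9 membrane reagent, enriched on streptavidin microbeads, then FACS-sorted. Anti-HA (expression) and streptavidin (reagent binding) fluorescence set low and high (top ~1%) gates. Polyreactivity labels come from the gate of origin. Genes were colony-PCR amplified, MiSeq 2 × 250 sequenced and filtered by CDR length.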

Sequence	polyreactivity (PSR sort gate)
QVQLVESGGGLVQAGGSLRLSCAASGSTFFIYAMGWYRQAPGKERELVATITKRGGRTYYADSVKGRFTISRDNAKNTVYLQMNSLKPEDTAVYYCAKDLWAVYLPGYDYWGQGTQVTVSS	low polyreactivity
QVQLVESGGGLVQAGGSLRLICAASGFTFDANAMGWYRQAPGKERELVAAITRVGSTFYADSVKGRFTISRDNAKNTVYLQMNSLKPEDTAVYYCNAARDHVSGYVYWGQGTQVTVSS	low polyreactivity
QVQLVESGGGLVQAGGSLRLSCAASGFTFDFNAMGWSRQAPGKERELVAAISSGASTNYADSVKGRFTISRDNAKNTVYLQMNSLKPEDTAVYYCAARSRTPGWYSTISRKMYWGQGTQVTVSS	high polyreactivity
QVQLVESVGGLVQAGGSLRLSCAASGSIFGDNAMGWYRQAPGKERELVAAITWRGGSTYYADSVKGRFTISRDNAKNTVYLQMNSLKPEDTAVYYCATDSRSHRDYWGQGTQVTVSS	low polyreactivity
QVQLVESGGGLVQAGGSLRLSCAASGRTIVTNAMGWYRQAPGKERELVAAITTRGSRTYYADSVKGRFTISRDNAKNTVYLQMNSLKPEDTAVYYCAAKQKHTQQTGWKYEYWGQGTQVTVSS	high polyreactivity
QDQLVESGGGLVQAGGSLRLSCAASGSTIDDYARGWYRQAPGKERELVAAITWTSTDTYADSVKGRFTISRDNAKNTVYLQMNCLKPEDTAVYYCATDFIWDTAVTGGPNDWEYDYWGQGTQVTVSS	low polyreactivity
QVQLVESGGGLVQAGGSLRLSCPASGSTLAWYTMGWYRQAPGKEREFVAVITGSGGSTFYADSVKGRFTISRDNAKNTVYLQMNSLKPEDTAVYYCAADYLYYVTQHRRFHLDYWGQGTQVTVSS	low polyreactivity
QVQLVESGGGLVQAGGSLRLSCAASGSTFVDYDMGWYRQAPGKERELVAAITYSGARTYYADSVKGRFTISRDNAKNTVYLQMNSLKPEDTAVYYCNADQRTASDQLEFDYWGQGTQVTVSS	low polyreactivity
QVQLVESGRGLFQAGGSLRLSCAPSGIIIVNYAMGWYRQAPGKERELVAAITTSGGSTYYADSVKGRFTISRDHAKNTVYLQMNSLKPEDTAVYDCAKKSSLFKHVVRYDYWGQGTQVTVSS	low polyreactivity
QVQLVESGGGLVQAGGSLRLSCAASGSTFVPYTMGWYRQAPGKERELVAVITSGGSTNYADSVKGRFTISRDNAKNTVYLQMNSLKPEDTAVYYCAAYGGTHYTYRYDYWGQGTQVTVSS	high polyreactivity
QGQLVESGGGLVQAGGILLLSCAASGIIFLYYAMGWYRQAPGKERELVAAITSGGSTYYADSVKGRFTISRDNAKNTVYLQMNSLKPEDTAVYYCNAPYHGREYEWGQGTQVTVSS	high polyreactivity
QVQLVESGGGLVQAGGSLRLSCAASGFTFYDKAMGWNRQAPGKERELVAAINCRSGSTYYADSVKGRFTISRDTAKNTVYLQMNSLKPEDTAVYYCASGLVFHYYAPKSYYLRYDYWGQGTQVTVSS	low polyreactivity
QVQLVESGGGLVQAGGSLRLSCAASGYTFYVYTMGWYRPARGKERELVAAISGSGTSTYYADSVKRRFTISRDNAKNTVYLQMNSLKPEDTAVYYCNAQDSLTTVPDPEYDYWGQGTQVTVSS	low polyreactivity
QVQLVESCGGLVQAGGSIRLRCAATGSIIYVNPMGWYRQAPWKEREMVAAITGGASTNYADSVKGRFTISRDNAKNTVYLQMNLLKPEDTAVYYCAVDPVGHATRVWTYQYDYWGQGNQVTVSS	low polyreactivity
QVQLVESGGGLVQAGGSLRLSCAASGGTFTFYAMGWYRQAPGKERELVATINWSGGSTYYADSVKGRFTNSRDNAKNTVYLQMNSLKPEDTAVYYCNAAWAYKSVEYWGQGTQVTVSS	low polyreactivity
QFQLVESGGGLVQAGGSLRLSCAASGSIFDYYDLGWSRKAPGKERELGAAINWSGGITYYADSVKGRFTISRDNAKNTVYLQMNSLKPEDTGVYYCAADWYQWVYSSSITSFDYWGQGTQVTVSS	low polyreactivity
QLQLVESGGGLVQAGGSLSLSCAASGRTVYGYSMGWYRQAPGKERELVAAISKTGGSTYYADSVKGRFTISRDNAKNTVYLQMNSLKPEDTAVYYCNARDTSGFTRFSSKYDYWGQGTQVTVSS	high polyreactivity
QVQLVESGGGLVQAGGSLRLSCAASGIIFFKYAMGWYRQAPGKERELVARISWSGSTYADSVKGRFTISRDNAKNTVYLQMNSLKPEDTAVYYCAADSFTITADSDDYWGQGTQVTVSS	low polyreactivity
QVQLVESGGGLDQAGGSLRLTCAAYGSTFRYNAMGWYRQAHGKERELVAAIDKRGDSTYADSVKGSFTISRDNAKNTVYLQMNSMNPDDTAVYYCAADSDSKYYYGFLLDTYEYWGQATQVTVSS	low polyreactivity
QVQLVESGGGLVQAGGSLRLSCAPSGIILYRYAMGWYRQAPGKERELVAAITYSGGSTYYADSVKGRFTISRDNAKNSVYLQMNSLNPEDTAVYYCAAESRAGRYYVSKPSNYWGQGTQVTVSS	high polyreactivity
QVQLVESGGGLVQAGGSLRLSCAASGSIFLWNAKGWYRQAPGKERELVAAISSGTSTNYADSVKGRFTISRDNAKNTVYLQMNSLKPEDTAVYYCAARGRKNQRRYGYWGQGTQVTVSS	low polyreactivity
QVQLVESGGGLVQGGGSLRLSCAASGFIFRYYAMGWYRQAPGKERELVAAINGRGDSTYYADSVKGRFTISRDNAKNTVYLQMNSLKPEDTAVYYCAAQGYRYLSRDRYDYWGQGTQVTVSS	high polyreactivity

Sequence	polyreactivity (PSR sort gate)
QVQLVESGGGLVQAGGSLRLSCAASGFIFLTNAMGWYRQAPWKERELVAAITGGGITYYADSVKGRFTISLDNAKNTVYLQMNSLNPEDTAVYYCATDSLIFTIFDYWGQGSQVTVSS	low polyreactivity
QVQLVESGGGLVQAGGSLRLSCAASGSIFYRYAMGWYRQAPGKERELVASISKSGGSTYYADSVKGRFTISRDNAKNTVYLQMNSLKPEDTAVYYCAKKPRGTVYRFDYWGQGTQVTVSS	high polyreactivity
QVQLVESGGGLVQAGGSLRLSCAASGSTFQGYAMGRYRQAPGKERELVAGITGSGGSSYYADSVKGRFTISRDNAKNTVYLQMNSLKPEDTAVYYCAARYYQSYYYKYYYWGQGTQVTVSS	high polyreactivity
QVHLVESGGGLVQAGGSLRLSCAASGRIFVPYVMGWNRQAPGTERELVASISDSDTSTYYADSVKGRFTISRDNAKNTVYVEMISLKPEDTAVYDCNVDYWGQGTHVTVSS	low polyreactivity
QVQLVESGGGLVQAGGSLRLSCAASGSIFKGYTMGWYRQAPGNERELVASMRPRGGSTYYADSVKGRFTMSRHNAKNPVDLQMNSLKPEDTAVYYCAAPWGGFAGQERKYDYWGQGTQVTVSS	low polyreactivity
QVQLVESGGGLVQAGGSLRLSCAASGFIITTYAMGWYRQAPGKERELVAGISSSGGRTYADSVKGRFTISRDNAKNTVYLQMNSLKPEDTAVYYCAREQWRTLVQTDKYKYDYWGQGTQVTVSS	high polyreactivity
QVQLVESGGGLVQAGGSLRLSCAASGRTFYPNAMGWSRQAPGQERAFVARISDSGGSTYYADSVKGRFTISRDNAKNTVYLQMNSLKPEDNAVYYCAADYGDPRVNEYDYWGQGTQVTVSS	low polyreactivity
QVHLVESGGGLVQAGGSLRLSCAASGRIFYGYAMGWYRQAPWKEREFVAAITWRGGTFYADSVKGRFTISRDNAKNTVYLQMNSLKPEDTAVYYCAARVSSYGRYDYWGQGTQVTVSS	high polyreactivity
QVQLVESGGGLVQAGGSLRLSCAASGYIFSGYAMGWYRQAPGKERELVAAISSSGGRTYYADSVKGRFTISRDNAKNTVYLQMNSLKPEDTAVYYCATVPRKTPGNAELDYWGQGTQVTVSS	high polyreactivity
QVQLVESGGGLVQAGGSLRLSCAASGIIFPSYVMGWYRQAPGKERELVAVITWSGGSTYYADSVKGRFTISRDNAKNTVYLQMNSLKPEDTAVYYCARRRRWVHSFDYWGQGTQVTVSS	high polyreactivity
QVQLVESGGGLVQAGGSLRLSCAASGSTFLRNAMGWYRQAPGKERQLVAAISRRGGSTYYADSVKGRFTISRDNAKNTVYLQMNSLKPEDTSVYYCAKDYRSPISGDYWGQGTQVTVSS	high polyreactivity
QVQLVESGGGLVQAGGSLRLSCAASGIIFKIYAMGWYRQAPGKARELVAAISWRGGSTYYADSVKGRFTISRDNAKNTVYLQMNSLKPEDTAVYYCAAARGYRTGYGYWGQGTQVTVSS	high polyreactivity
QVQVVESGGGLVQAGGSLRLSCAASGSTFEYNAMGWYRQAPGKERELVASSTNYADSVKGRFTISRDNATNTVYLKMNSLKPEDTAVYYCAREQGVNRNHDYWGQGTQVTVSS	low polyreactivity
QVQLVESGGGLVQAGGSLRLSCAASGIILSAYAMGWYRQAPGKERELVARISRSGGRTYYADSVKGRFTISRDNAKNTVYLQMNSLKPEDTAVYYCAADYTYGFGLYFGYGYWRQGTQVTVSS	high polyreactivity
QVQLVESGGGLVQAGGSLRLSCSASGSTFYVYAMGWYRQAPGKERELVAAITDSGGSTYADSVKGRFTISRDNAKNTVYLQMNSLKPEDTAVYADSTYNWYYYYWGQGTQVTVSS	low polyreactivity
QDQLVESVGGLVQAGGSLRLSCAASGFTFYNYAMGWYRQAPGKERELVAAISWNGGSTYYADSVKGRFTISRDNAKNTVYLQMNSLKPEDTAVYYCNADISQRTRGYYYVWWSRMDYWGQGTQVTVSS	low polyreactivity
QVQLVESGVGLVQAGGSLRLSCAASGSTFGRYAMGWYRQAPGKERELVARISWGGGSTYYADSVKGRFTISRDNAKNTVYILMISLKPEDSAVYDCATRVYRSAVSYDYWGQGTQVTVSS	high polyreactivity
QVQLVESGGGLVQAGGSLRLSCAASGLIFYFNAIGWYRQAPGKERELVASITRTGSTNYADSVKGRFTISRDNAKNTVYLHMNRLKPEYTAVYYCSAPWTQILDYWGQGTQVTVSS	low polyreactivity
QVQLVESGGGLVQAGGSLRLSCAASGSINYYAMGWYRQAPGKERELVAAITGSGGSTYYADSVKGRFTISRDNAKNTVYLQMNSLKPEDTAVYYCAARYGYIYGPYYYWGQGTQVTVSS	high polyreactivity
QVQLVESGGGLVQAGGSLRLICAASGITTRSNAMGWYRQAPGKERDFVAAITSRGGSTYYAYSVKGRFTISRDNAKNTVYLQMNSLKPEDTAVYYCAKGKYPDKKSRHVTLYDYWGQGTQVTVSS	high polyreactivity
QVQLVESGGGLVQAGGSLRLSCAASGRSIRIYAMGWYRQAPGKERELVAAIRWSGGTTYYADSVKGRFTISRDNAKNTVYLQMNSLKPEDTAVYYCAADSTNRYDYWGQGTQVTVSS	high polyreactivity
